Test results reported in publication PMC7736783 (Nucleic Acids Research, 2020).

B1: MTA1-Δ12 (MTA1 162–354 with part of ELM2 helix 2 deleted) (domain or fragment, UniProt Q13330 162-354, looked up)
chain: ADKGEIRVGNRYQADITDLLKEGEEDGRDQSRLETQVWEAHNPLTDKQIDQFLVVARSVGTFARALDCSSAASRDITLFHAMDTLHKNIYDISKAISALVPQGGPVLCRDEMEEWSASEANLFEEALEKYGKDFTDIQQDFLPWKSLTSIIEYYYMWKTTDRYVQQKRLKAAEAESKLKQV
notes: Tag cleaved off by TEV protease before the gel filtration; Runs as a dimeric and a monomeric species on Superose 6; source: HEK293F, co-transfected, in lysate; co-purified (FLAG resin, TEV protease, Superose 6); not shown: His10-Flag3, N-terminal, kept
B2: MTA1 BAH-ELM2-SANT-ZnF (residues 1–453) (domain or fragment, UniProt Q13330 1-453, looked up)
chain: MAANMYRVGDYVYFENSSSNPYLIRRIEELNKTANGNVEAKVVCFYRRRDISSTLIALADKHATLSVCYKAGPGADNGEEGEIEEEMENPEMVDLPEKLKHQLRHRELFLSRQLESLPATHIRGKCSVTLLNETESLKSYLEREDFFFYSLVYDPQQKTLLADKGEIRVGNRYQADITDLLKEGEEDGRDQSRLETQVWEAHNPLTDKQIDQFLVVARSVGTFARALDCSSSVRQPSLHMSAAAASRDITLFHAMDTLHKNIYDISKAISALVPQGGPVLCRDEMEEWSASEANLFEEALEKYGKDFTDIQQDFLPWKSLTSIIEYYYMWKTTDRYVQQKRLKAAEAESKLKQVYIPNYNKPNPNQISVNNVKAGVVNGTGAPGQSPGAGRACESCYTTQSYQWYSWGPPNMQCRLCASCWTYWKKYGGLKMPTRLDGERPGPNRSNMSPHGL
notes: MTA1, BAH, ELM2, SANT and GATA zinc finger domains, residues 1–453; also called extended MTA1 construct; source: HEK293F, co-transfected; co-purified (FLAG resin, TEV protease, Superose 6); not shown: His10-Flag3, N-terminal, cleaved
B3: MTA1 ELM2-SANT domain (residues 162–354) (domain or fragment, UniProt Q13330 162-354, looked up)
chain: ADKGEIRVGNRYQADITDLLKEGEEDGRDQSRLETQVWEAHNPLTDKQIDQFLVVARSVGTFARALDCSSSVRQPSLHMSAAAASRDITLFHAMDTLHKNIYDISKAISALVPQGGPVLCRDEMEEWSASEANLFEEALEKYGKDFTDIQQDFLPWKSLTSIIEYYYMWKTTDRYVQQKRLKAAEAESKLKQV
notes: The tag held the complex on the FLAG resin; it was cleaved off by TEV protease before gel filtration, SEC-MALS, the Strep-Tactin step and cryo-EM; also called MTA1 wildtype; source: HEK293F, co-transfected, in lysate; co-purified (FLAG resin, TEV protease, Superose 6); not shown: His10-Flag3, N-terminal, kept

Assays:
[1] = molecular target: the molecule itself; assay: SEC; FLAG-purified, TEV-eluted co-expressed complex run on a Superose 6 column; fractions on SDS-PAGE
HDAC1 (residues 1–482) [2] = molecular target: T1, HDAC1 (residues 1–482) (UniProt Q13547 1-482); assay: co-IP; HEK293F cells co-transfected with His10-Flag3-MTA1 construct, HDAC1 and MBD2; clarified lysate on FLAG resin 30 min, washes in 50 mM Tris-HCl pH 7.5, 100 mM potassium acetate, 5% glycerol, RNase A, elution with TEV protease; SDS-PAGE; DNA ratios 1:1:1 and 1:1:4; details: partners not purified
T1 construct: Two copies stand in the HDAC1:MTA1 dimer complex; also called histone deacetylase 1; source: HEK293F, co-transfected, in lysate; co-purified (FLAG resin, TEV protease, Superose 6)
T1 sequence (Q13547 whole entry, the tested form may be a part): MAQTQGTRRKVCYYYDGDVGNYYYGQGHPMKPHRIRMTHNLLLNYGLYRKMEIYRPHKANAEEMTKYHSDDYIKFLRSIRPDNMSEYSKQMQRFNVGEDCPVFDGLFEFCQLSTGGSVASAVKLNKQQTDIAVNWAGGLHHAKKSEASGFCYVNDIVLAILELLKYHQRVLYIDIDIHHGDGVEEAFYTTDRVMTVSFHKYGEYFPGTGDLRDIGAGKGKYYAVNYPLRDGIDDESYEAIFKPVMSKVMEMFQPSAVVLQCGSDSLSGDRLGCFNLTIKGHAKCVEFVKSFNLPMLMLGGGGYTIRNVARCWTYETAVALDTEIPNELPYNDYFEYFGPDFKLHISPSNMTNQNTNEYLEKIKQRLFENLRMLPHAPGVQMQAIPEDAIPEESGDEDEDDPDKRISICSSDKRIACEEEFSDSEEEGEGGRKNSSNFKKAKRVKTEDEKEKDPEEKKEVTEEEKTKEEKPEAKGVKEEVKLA

MBD2 (residues 145–411) = molecular target: T2, MBD2 (residues 145–411) (UniProt Q9UBB5 145-411); assay: as above; details: partners not purified
T2 construct: also called untagged MBD2; source: HEK293F, co-transfected, in lysate; co-purified (FLAG resin, TEV protease, Superose 6)
T2 sequence (Q9UBB5 145-411): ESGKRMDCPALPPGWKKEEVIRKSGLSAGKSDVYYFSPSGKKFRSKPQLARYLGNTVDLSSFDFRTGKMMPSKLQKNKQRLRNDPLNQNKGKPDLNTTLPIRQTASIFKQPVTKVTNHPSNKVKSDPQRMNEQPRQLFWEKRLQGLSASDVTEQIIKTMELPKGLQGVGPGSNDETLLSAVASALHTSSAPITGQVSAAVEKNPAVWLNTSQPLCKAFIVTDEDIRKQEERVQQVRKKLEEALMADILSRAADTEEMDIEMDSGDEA

HDAC1 (residues 1–482) [3] = molecular target: T1, HDAC1 (residues 1–482); assay: cryo-EM structure; co-expressed complexes purified by gel filtration, on graphene oxide grids; maps of 6.1, 4.5 and 19 Å with known structures docked as rigid bodies; details: both partners purified
[4] = molecular target: the molecule itself; assay: as above
[5] = molecular target: the molecule itself; assay: SEC-MALS; peak fraction of the gel filtration-pure HDAC1:MTA1:MBD2 complex re-run on Superose 6 with refractive index and MALS detectors
[6] = molecular target: T3, Strep-MBD2 (residues 114–411) (UniProt Q9UBB5 114-411); assay: co-IP; HEK293F cells co-transfected with His10-Flag3-MTA1 construct, HDAC1 and MBD2; clarified lysate on FLAG resin 30 min, washes in 50 mM Tris-HCl pH 7.5, 100 mM potassium acetate, 5% glycerol, RNase A, elution with TEV protease; SDS-PAGE; DNA ratios 1:1:1 and 1:1:4; details: partners not purified
T3 construct: MBD2, residues 114–411; source: HEK293F, co-transfected, in lysate; co-purified (FLAG resin, TEV protease, Superose 6)
T3 sequence (Q9UBB5 114-411): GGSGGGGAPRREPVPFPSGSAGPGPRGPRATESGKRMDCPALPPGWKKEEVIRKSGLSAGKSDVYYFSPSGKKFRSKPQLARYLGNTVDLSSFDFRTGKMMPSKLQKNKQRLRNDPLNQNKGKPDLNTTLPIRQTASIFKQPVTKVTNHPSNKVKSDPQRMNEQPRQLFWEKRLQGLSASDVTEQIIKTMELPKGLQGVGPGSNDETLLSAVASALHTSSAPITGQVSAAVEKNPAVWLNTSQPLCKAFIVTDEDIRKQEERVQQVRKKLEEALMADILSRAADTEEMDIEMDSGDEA

Binder | binding result [1] | binding result (HDAC1 (residues 1–482) [2]) | binding result (MBD2 (residues 145–411)) | binding result (HDAC1 (residues 1–482) [3]) | binding result [4] | stoichiometry N [5] | binding result [6]
B1 | binds | binds | binds | – | – | – | –
B2 | – | – | – | binds | binds | – | –
B3 | – | binds | binds | – | – | 2 | binds
